Patent publication US20150118238A1 (Eli Lilly, published 2015)
Positions count from the first letter of the chain named.

B1: Antibody I (antibody, V domains shown)
VH: EVQLQQSGTVLARPGASVKMSCKASGYSFTSYWMYWVKQRPGQGLEWIGGFHPGNSGTNYNQKFKGKAKLTAVTSASTAYMELSSLTNEDSAVYYCTRGYYYDGSFTYWGQGTLVTVSA
VL: EIQMTQSPASLSASVGETVTITCRASENIYSYLAWYQRKQGRSPQLLVYNAKPLAEGVPSRFSGSGSGTQFSLKINSLQPEDFGTYYCQHHYGTPFTFGSGTRLEIKR
notes: Captured by anti-mouse Fc and detected with anti-mouse IgG; also called R-PE-Antibody I (R-phycoerythrin conjugate used in the CTC assay)
B2: Antibody II (antibody, V domains shown)
VH: B1 VH with G54R
VL: B1 VL
notes: also called R-PE-Antibody II (R-phycoerythrin conjugate used in the CTC assay); Antibody II (Anti-cMET)

How the values were obtained:
human c-Met-ECD-Fc-Flis [1] = target: T1, human c-Met-ECD-Fc-Flis (human); test: SPR (BIAcore), antibody captured by goat anti-mouse Fc, c-Met-ECD-Fc-Flis as analyte, 25 C, 1:1 model, n=2
T1 construct: Expressed in CHO cells; also called c-Met-ECD with Fc and Flis tag; ECD of human c-MET
T1 sequence (chain, as listed by the source limits assumed): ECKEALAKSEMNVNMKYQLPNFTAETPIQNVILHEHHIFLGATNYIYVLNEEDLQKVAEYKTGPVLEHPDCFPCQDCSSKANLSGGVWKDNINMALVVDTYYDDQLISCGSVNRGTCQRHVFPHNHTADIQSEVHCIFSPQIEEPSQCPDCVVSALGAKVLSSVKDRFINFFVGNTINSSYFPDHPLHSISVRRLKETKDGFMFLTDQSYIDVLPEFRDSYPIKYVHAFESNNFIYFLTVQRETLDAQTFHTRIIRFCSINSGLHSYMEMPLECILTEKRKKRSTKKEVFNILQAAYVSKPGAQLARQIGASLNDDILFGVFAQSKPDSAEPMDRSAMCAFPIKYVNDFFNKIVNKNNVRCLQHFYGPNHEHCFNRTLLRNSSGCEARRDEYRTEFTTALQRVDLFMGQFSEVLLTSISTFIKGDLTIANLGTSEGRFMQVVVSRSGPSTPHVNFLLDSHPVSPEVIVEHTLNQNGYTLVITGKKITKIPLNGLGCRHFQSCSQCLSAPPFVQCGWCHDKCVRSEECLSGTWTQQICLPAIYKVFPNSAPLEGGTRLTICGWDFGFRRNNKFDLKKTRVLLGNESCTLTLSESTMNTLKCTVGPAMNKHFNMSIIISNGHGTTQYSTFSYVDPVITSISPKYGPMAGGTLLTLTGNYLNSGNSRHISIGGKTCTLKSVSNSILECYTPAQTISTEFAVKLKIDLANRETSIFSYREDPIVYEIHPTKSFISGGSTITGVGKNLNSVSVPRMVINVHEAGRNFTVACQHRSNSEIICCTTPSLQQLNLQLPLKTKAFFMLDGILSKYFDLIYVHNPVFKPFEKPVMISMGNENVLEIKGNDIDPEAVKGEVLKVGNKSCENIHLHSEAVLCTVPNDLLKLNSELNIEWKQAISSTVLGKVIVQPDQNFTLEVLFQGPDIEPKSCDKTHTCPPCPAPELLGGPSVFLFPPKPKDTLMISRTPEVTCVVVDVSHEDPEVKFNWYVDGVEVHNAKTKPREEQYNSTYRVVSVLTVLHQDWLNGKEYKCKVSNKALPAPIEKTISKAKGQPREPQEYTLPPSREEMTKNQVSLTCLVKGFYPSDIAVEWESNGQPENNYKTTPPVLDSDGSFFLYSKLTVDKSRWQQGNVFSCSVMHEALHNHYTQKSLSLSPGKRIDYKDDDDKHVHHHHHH

[2] = target: T2, RON on RON-transfected NIH 3T3 cells (UniProt Q04912 25-1400, limits assumed); test: IHC on FFPE cell microarray (Dako EnVision FLEX+), manual reading by brightfield microscope
T2 construct: whole, on cells; Formalin-fixed paraffin-embedded cell pellets in IHC; also called RON transfected NIH3T3 Cell Line
Source text: For staining human tumor cell lines, 60 million cells may be harvested, formalin-fixed, and processed into histogel. The histogel cell pellets may be embedded into paraffin blocks, cored, and designed into a cell microarray that may be re-embedded in a paraffin block and then microtomed onto slides. These slides may be immunohistochemically stained and counterstained using the IHC assay protocol as described above in Example 7. RON-transfected NIH 3T3 cells and mock NIH 3T3 cells (mouse embryonic fibroblasts) are used as non-c-MET expressing negative controls.

[3] = target: T3, ECD of human RON (R&D Systems, #1947-MS-050) (human, UniProt Q04912 25-957); test: IHC pre-absorption/blocking: Antibody II at 2 microgram/mL incubated overnight with RON ECD, then used to stain slides
T3 construct: extracellular domain; Bought reagent; also called MST1R
Description: The antibody, or antigen-binding fragment thereof, of the present invention at 2 microgram/mL may be incubated overnight with either c-Met-ECD-Fc-Flis (SEQ ID NO: 23) or the ECD of human RON (R&D Systems, #1947-MS-050) at 200× molar excess on a rotator at 4° C. After overnight incubation, the antibody, or antigen-binding fragment thereof, of the present invention may be tested against slides of human tissue or cancer cell lines as described above in Example 6.

human c-Met-ECD-Fc-Flis [4] = target: T1, human c-Met-ECD-Fc-Flis; test: SPR (BIAcore)

Binder	Kd (human c-Met-ECD-Fc-Flis [1]) [nM]	koff (human c-Met-ECD-Fc-Flis [1]) [s⁻¹]	kon (human c-Met-ECD-Fc-Flis [1]) [M⁻¹ s⁻¹]	binding result [2]	binding result [3]	fold binding affinity compared to Antibody I (human c-Met-ECD-Fc-Flis [4]) [fold]
B1	2.47	0.000302	123000			
B2	0.37	4.6e-05	125000	no binding (tested: 2 µg/mL)	no binding (tested: 200× molar excess)	> 5
